Assay results published in the Human Domainome abundance scans (Beltran et al. 2025).
± gives the uncertainty stated by the source.

B1: Chromodomain-helicase-DNA-binding protein 7, residues 2564 to 2605; numbered along this chain, Q9P2D1 (parent)
chain: DPDTRIPVINLEDGTRLVGEDAPKNKDLVEWLKLHPTYTVDM

Variants of: B1
Assay: abundance fitness (aPCA) (normalised: wild type 0, dead -1); higher = more abundant; growth selection in yeast, the domain comes from the species named
Conditions: Homo sapiens

Abundance fitness of substitutions, site by site:
D41: K -1.14 ± 0.35; A -0.396 ± 0.064; I -0.871 ± 0.097; R -0.841 ± 0.058; E -0.179 ± 0.079; G -0.335 ± 0.051; M -0.531 ± 0.072; L -0.594 ± 0.053; Q -0.422 ± 0.48; S -0.438 ± 0.057; H -0.364 ± 0.092; V -0.793 ± 0.055; N -0.343 ± 0.058; C -0.531 ± 0.067; W -0.84 ± 0.2; T -0.586 ± 0.063; P -0.453 ± 0.12
V40: M -0.379 ± 0.083; I -0.135 ± 0.071; C -0.152 ± 0.067; H -0.372 ± 0.074; Q -0.108 ± 0.097; S -0.144 ± 0.051; G -0.367 ± 0.044; R -0.065 ± 0.047; L -0.381 ± 0.048; F -0.59 ± 0.079; K -0.11 ± 0.054; T -0.08 ± 0.065; E -0.238 ± 0.067; P -0.166 ± 0.08; D -0.295 ± 0.07; A 0.135 ± 0.1; N -0.341 ± 0.071
Y38: R -0.449 ± 0.064; D -0.278 ± 0.078; K -0.321 ± 0.11; I -1.02 ± 0.099; V -0.652 ± 0.082; E -0.387 ± 0.073; A -0.447 ± 0.082; L -0.632 ± 0.082; F -0.128 ± 0.059; C -0.445 ± 0.057; S -0.297 ± 0.076; T -0.331 ± 0.079; N -0.459 ± 0.073; H -0.216 ± 0.061; P -0.916 ± 0.46; W 0.085 ± 0.12; G -0.327 ± 0.05
T39: Q 0.006 ± 0.065; C -0.212 ± 0.064; A -0.279 ± 0.1; H -0.186 ± 0.056; K 0.076 ± 0.063; W -0.835 ± 0.12; Y -0.347 ± 0.078; R 0.002 ± 0.06; I -0.158 ± 0.064; L -0.42 ± 0.056; M -0.382 ± 0.11; V -0.004 ± 0.063; N -0.162 ± 0.064; F -0.639 ± 0.11; P -0.771 ± 0.11; E 0.046 ± 0.078; G -0.295 ± 0.06; S -0.038 ± 0.072
E30: W -0.529 ± 0.11; T -0.022 ± 0.078; V -0.391 ± 0.068; H -0.262 ± 0.095; M -0.313 ± 0.1; Q -0.187 ± 0.13; R -0.277 ± 0.072; F -0.591 ± 0.12; K -0.333 ± 0.31; N -0.065 ± 0.074; P -0.345 ± 0.33; S -0.023 ± 0.059; I -0.608 ± 0.12; C -0.253 ± 0.072; D 0.008 ± 0.063; A 0.027 ± 0.12; L -0.497 ± 0.056; G -0.145 ± 0.056
T37: P -0.281 ± 0.1; G 0.022 ± 0.054; E -0.202 ± 0.089; W -0.231 ± 0.11; H -0.014 ± 0.077; Q -0.273 ± 0.14; A -0.131 ± 0.068; D -0.09 ± 0.06; N -0.059 ± 0.072; M -0.082 ± 0.068; R -0.05 ± 0.064; I -0.221 ± 0.1; L -0.159 ± 0.073; S -0.058 ± 0.065; F -0.727 ± 0.077
V29: D -0.022 ± 0.087; L -0.109 ± 0.053; F -0.168 ± 0.069; A 0.11 ± 0.068; H 0.098 ± 0.073; W -0.416 ± 0.09; C -0.087 ± 0.081; G -0.081 ± 0.064; M -0.095 ± 0.12; I -0.15 ± 0.064; K 0.229 ± 0.089; N 0.126 ± 0.053; T 0.169 ± 0.14; E 0.052 ± 0.1; R 0.121 ± 0.056; S 0.063 ± 0.084; P 0.063 ± 0.083
L34: P -0.328 ± 0.095; M 0.011 ± 0.077; D -0.042 ± 0.1; V -0.039 ± 0.076; F -0.334 ± 0.12; K -0.029 ± 0.39; E 0.048 ± 0.07; G -0.047 ± 0.045; I -0.417 ± 0.099; Y -0.251 ± 0.052; H -0.037 ± 0.066; A 0.141 ± 0.077; C -0.002 ± 0.06; T 0.03 ± 0.093; N -0.014 ± 0.066
L28: Y -0.499 ± 0.12; Q -0.841 ± 0.2; D -0.432 ± 0.056; I -0.129 ± 0.068; M -0.321 ± 0.06; N -0.524 ± 0.1; F -0.24 ± 0.11; A -0.292 ± 0.067; G -0.401 ± 0.048; E -0.41 ± 0.072; H -0.134 ± 0.11; T -0.355 ± 0.083; W -0.827 ± 0.079; K -0.454 ± 0.14; V -0.185 ± 0.048; S -0.39 ± 0.062; P -0.568 ± 0.11
M42: T 0.142 ± 0.083; N 0.025 ± 0.059; Q 0.108 ± 0.12; P -0.569 ± 0.3; Y -0.027 ± 0.069; L -0.172 ± 0.07; F -0.244 ± 0.087; H -0.04 ± 0.27; W -0.438 ± 0.26; S 0.111 ± 0.06; A 0.132 ± 0.081; K -0.528 ± 0.36; V -0.065 ± 0.061; R -0.092 ± 0.3; I -0.189 ± 0.097; G -0.096 ± 0.15
N25: P -0.4 ± 0.12; D -0.122 ± 0.067; C -0.274 ± 0.061; T -0.131 ± 0.076; L -0.252 ± 0.077; M -0.086 ± 0.092; F -0.249 ± 0.097; K 0.095 ± 0.067; S -0.101 ± 0.082; I -0.326 ± 0.095; G -0.157 ± 0.046; A -0.206 ± 0.053; Y -0.253 ± 0.094; R -0.1 ± 0.07; W -0.418 ± 0.066
K24: S -0.206 ± 0.054; Y -0.237 ± 0.07; M 0.274 ± 0.14; W -0.426 ± 0.078; Q -0.243 ± 0.071; R -0.188 ± 0.073; H -0.107 ± 0.097; I -0.165 ± 0.1; T -0.047 ± 0.062; P -0.449 ± 0.079; V -0.475 ± 0.058; L -0.099 ± 0.071
H35: M -0.469 ± 0.088; N -0.064 ± 0.077; D -0.547 ± 0.1; C -0.866 ± 0.088; Y -0.593 ± 0.072; Q -0.56 ± 0.099; T -0.616 ± 0.1; L -0.866 ± 0.08; K -0.546 ± 0.14; V -0.751 ± 0.062; W -0.764 ± 0.092; E -0.615 ± 0.093; G -0.758 ± 0.053; F -0.744 ± 0.074
K33: T -0.468 ± 0.088; L -0.17 ± 0.064; F -0.339 ± 0.061; V -0.261 ± 0.059; D -0.01 ± 0.13; E -0.04 ± 0.074; N -0.095 ± 0.078; W -0.319 ± 0.079; C -0.4 ± 0.069; S -0.01 ± 0.055; H -0.22 ± 0.46; I -0.449 ± 0.058; G -0.215 ± 0.071; A 0.162 ± 0.12
D27: W -0.563 ± 0.073; C -0.175 ± 0.089; T -0.526 ± 0.094; N 0.019 ± 0.056; Y -0.417 ± 0.1; P -0.88 ± 0.1; I -0.438 ± 0.12; H -0.224 ± 0.076; S -1.11 ± 0.3; M -0.727 ± 0.082; A -0.4 ± 0.069; E -0.23 ± 0.1; V -0.448 ± 0.068; L -0.678 ± 0.076; K -0.517 ± 0.18; G -0.38 ± 0.052; R -0.649 ± 0.073; F -0.405 ± 0.077
P36: K -0.321 ± 0.39; H -0.492 ± 0.13; N -0.36 ± 0.066; A -0.561 ± 0.06; S -0.457 ± 0.066; L -0.81 ± 0.096; W -0.731 ± 0.1; G -0.484 ± 0.057; Q -0.461 ± 0.13; R -0.401 ± 0.07; D -0.685 ± 0.17; I -0.65 ± 0.078; C -0.78 ± 0.067; E -0.406 ± 0.071
L32: N -0.342 ± 0.068; A -0.537 ± 0.095; I -0.434 ± 0.093; G -0.214 ± 0.05; F -0.375 ± 0.14; V -0.586 ± 0.085; T -0.334 ± 0.14; D -0.332 ± 0.12; W -0.574 ± 0.075; S -0.255 ± 0.064; C -0.343 ± 0.079; E -0.324 ± 0.074; R -0.332 ± 0.078
K26: H 0.203 ± 0.48; M -0.278 ± 0.061; V -0.166 ± 0.059; S -0.106 ± 0.054; D -0.258 ± 0.076; C -0.166 ± 0.056; Q -0.039 ± 0.16; I -0.255 ± 0.068; W -0.639 ± 0.1; R -0.081 ± 0.047; A -0.068 ± 0.072; P -0.56 ± 0.08; Y -0.481 ± 0.072; E 0.154 ± 0.16; L -0.559 ± 0.074; G -0.208 ± 0.053; T -0.361 ± 0.078; N -0.276 ± 0.069; F -0.486 ± 0.11
W31: E -0.099 ± 0.14; D -0.128 ± 0.065; A -0.166 ± 0.094; Y -0.297 ± 0.064; Q -0.569 ± 0.16; T -0.398 ± 0.16; G -0.163 ± 0.046; F 0.223 ± 0.094; C -0.301 ± 0.051; R -0.363 ± 0.072; M -0.196 ± 0.11; P -0.141 ± 0.082; S -0.38 ± 0.084; V -0.336 ± 0.059; I -0.463 ± 0.086; L -0.492 ± 0.07
